Legend:
food intake = assay: Food intake in mice; format: in vivo
Method: Mice were housed in individual cages and food intake was measured at 0.5, 1, and 2 hours.
Mice were subcutaneously injected with 0.15 μmol/kg or 3 μmol/kg LEAP2.

[1] = Growth hormone infusion during chronic calorie restriction in LEAP2-expressing mice; format: in vivo; conditions: growth hormone pumps 0.5 μg/hr s.c.
Method: As described above, two weeks before initiation of calorie restriction, 2-3 month-old male mice were administered AAV-LEAP2 or AAV-GFP by tail vein injection. Diet treatment groups and measurements were the same as above. For growth hormone infusion, Alzet® osmotic mini-pumps filled with recombinant rat growth hormone (GroPep Bioreagents) or vehicle were implanted subcutaneously in the interscapular region. Growth hormone concentration in the pumps was 2 mg/ml and the growth hormone was delivered at a rate of 0.25 μl/hr (0.5 μg/hr).
FIG. 8A illustrates the experimental design for growth hormone infusion during chronic calorie restriction. The delivery efficiency of growth hormone was confirmed in a separate group of naïve mice kept in ad libitum conditions over 2 weeks. […] Osmotic pumps were implanted 3 days before initiation of calorie restriction. […] In LEAP2-expressing mice implanted with growth hormone pumps, 60% were able to maintain stable levels of blood glucose and survived to the end of the experiment. […] FIG. 8C presents a Kaplan-Meier survival curve of the mice from this experiment.

endogenous LEAP2 = biological target: T1, endogenous LEAP2 (Mus musculus, UniProt Q91V13); assay: Growth hormone release after fasting and anti-LEAP2 antibody treatment; format: in vivo, mice; conditions: 10 mg/kg i.p. after 24 hour fasting
T1 construct: The mature form of LEAP2 found in circulation is a 40 amino acid cationic bicyclic peptide; from tissue; host or cells: live fasted mice; circulating endogenous LEAP2
T1 sequence (Q91V13 37-76): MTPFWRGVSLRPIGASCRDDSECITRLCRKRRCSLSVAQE
Method: FIG. 10C illustrates the experimental design for evaluating the impact of anti-LEAP2 antibodies on growth hormone release. Following a 24 hour fasting period, a baseline blood sample was taken, and anti-LEAP2 antibodies (10 mg/kg) were administered by intraperitoneal injection. Growth hormone levels were determined at 5, 10, 30, 60, 90, and 120 minutes post-injection.

## CCCCCCCC(=O)OC[C@H](NC(=O)[C@H](CO)NC(=O)CN)C(=O)N[C@@H](Cc1ccccc1)C(=O)N[C@@H](CC(C)C)C(=O)N[C@@H](CO)C(=O)N1CCC[C@H]1C(=O)N[C@@H](CCC(=O)O)C(=O)N[C@@H](Cc1c[nH]cn1)C(=O)N[C@@H](CCC(N)=O)C(=O)N[C@@H](CCCNC(=N)N)C(=O)N[C@H](C(=O)N[C@@H](CCC(N)=O)C(=O)N[C@@H](CCC(N)=O)C(=O)N[C@@H](CCCNC(=N)N)C(=O)N[C@@H](CCCCN)C(=O)N[C@@H](CCC(=O)O)C(=O)N[C@@H](CO)C(=O)N[C@@H](CCCCN)C(=O)N[C@@H](CCCCN)C(=O)N1CCC[C@H]1C(=O)N1CCC[C@H]1C(=O)N[C@@H](C)C(=O)N[C@@H](CCCCN)C(=O)N[C@@H](CC(C)C)C(=O)N[C@@H](CCC(N)=O)C(=O)N1CCC[C@H]1C(=O)N[C@@H](CCCNC(=N)N)C(=O)O)C(C)C [ghrelin]
Food intake; ghrelin 0.03 μmol/kg s.c.
  food intake: only slightly increased
Food intake; ghrelin 0.15 μmol/kg s.c., 1 and 2 hour time points
  food intake: significantly promote food intake

B1: growth hormone: recombinant rat growth hormone (GroPep Bioreagents) delivered by Alzet osmotic mini-pumps (protein, UniProt P01244 27-216, looked up)
Somatotropin: FPAMPLSSLFANAVLRAQHLHQLAADTYKEFERAYIPEGQRYSIQNAQAAFCFSETIPAPTGKEEAQQRTDMELLRFSLLLIQSWLGPVQFLSRIFTNSLMFGTSDRVYEKLKDLEEGIQALMQELEDGSPRIGQILKQTYDKFDANMRSDDALLKNYGLLSCFKKDLHKAETYLRVMKCRRFAESSCAF
[1]
  LEAP2-expressing mice able to maintain stable blood glucose and surviving to the end of the experiment: 60%

B2: M18: mouse hybridoma anti-LEAP2 monoclonal antibody, VH SEQ ID NO:9, VL SEQ ID NO:10 (antibody, V domains shown)
VH: EIQLQQSGPELMKPGASVKISCKASGYSFTNYYIHWVKQSHGKSLEWIGYIDPFNGGTNYNQKFKGKATLTVDKSSSTAYMHLSSLTFEDSAVYYCARRGYYYGFTYWGQGTLVTVSA
VL: DIVLTQSPASLAVSLGQRATISCKASQSVDYDGDSYMNWYQQKPGQPPKLLIYTASNLESGIPARFSGSGSGTDFTLNIHPVEEEDAATYYCQQSNEDPYTFGGGTKLEIK
Endogenous LEAP2
  total amount of growth hormone released (AUC): increased the total amount of growth hormone released
Endogenous LEAP2; versus control antibody
  peak of growth hormone secretion: increased the peak of growth hormone secretion

— patent US11548942B2, “Methods of treating a wasting syndrome, increasing growth hormone levels, and increasing GHSR activity with a LEAP2 antibody” (NGM Biopharmaceuticals, Inc., priority 2017, dated 2023)
